Biological target: T1, HLA-A*02:01 (peptide-receptive MHC class I monomer after UV-ligand exchange) (human)
T1 construct: Monomers made with a UV-sensitive peptide that is cleaved by UV and exchanged for the test peptide; captured on streptavidin plates; also called MHC molecules
Assay: UV-ligand exchange + anti-b2m ELISA; exchange yield grade: + >=10%, ++ >=20%, +++ >=50, ++++ >=75%
Excerpt: Candidate peptides for T cell based therapies according to the present invention were further tested for their MHC binding capacity (affinity). The individual peptide-MHC complexes were produced by UV-ligand exchange, where a UV-sensitive peptide is cleaved upon UV-irradiation, and exchanged with the peptide of interest as analyzed. Only peptide candidates that can effectively bind and stabilize the peptide-receptive MHC molecules prevent dissociation of the MHC complexes. To determine the yield of the exchange reaction, an ELISA was performed based on the detection of the light chain (β2m) of stabilized MHC complexes. The assay was performed as generally described in Rodenko et al. (Rodenko et al., 2006).
96 well MAXISorp plates (NUNC) were coated over night with 2 ug/ml streptavidin in PBS at room temperature, washed 4× and blocked for 1 h at 37° C. in 2% BSA containing blocking buffer. Refolded HLA-A*02:01/MLA-001 monomers served as standards, covering the range of 15-500 ng/ml. Peptide-MHC monomers of the UV-exchange reaction were diluted 100 fold in blocking buffer. Samples were incubated for 1 h at 37° C., washed four times, incubated with 2 ug/ml HRP conjugated anti-β2m for 1 h at 37° C., washed again and detected with TMB solution that is stopped with […]. Absorption was measured at 450 nm. Candidate peptides that show a high exchange yield (preferably higher than 50%, most preferred higher than 75%) are generally preferred for a generation and production of antibodies or fragments thereof, and/or T cell receptors or fragments thereof, as they show sufficient avidity to the MHC molecules and prevent dissociation of the MHC complexes.

Binder	peptide exchange yield [%]
HLFDIILTSV [peptide HLFDIILTSV (SEQ ID NO: 54)]	≥ 75
FLTAFLVQI [peptide FLTAFLVQI (SEQ ID NO: 13)]	50 to 75
ALLEPGGVLTI [peptide ALLEPGGVLTI (SEQ ID NO: 114)]	50 to 75
ILVSQLEQL [peptide ILVSQLEQL (SEQ ID NO: 28)]	≥ 75
FLMEEVHMI [peptide FLMEEVHMI (SEQ ID NO: 24)]	50 to 75
KMLGLTVSL [peptide KMLGLTVSL (SEQ ID NO: 30)]	50 to 75
SLDIITITV [peptide SLDIITITV (SEQ ID NO: 27)]	≥ 75
ILLDDQFQPKL [peptide ILLDDQFQPKL (SEQ ID NO: 108)]	≥ 75
YQIDTVINL [peptide YQIDTVINL (SEQ ID NO: 23)]	50 to 75
LLSEPSLLRTV [peptide LLSEPSLLRTV (SEQ ID NO: 125)]	50 to 75
SLITDLQTI [peptide SLITDLQTI (SEQ ID NO: 124)]	50 to 75
SLFYNELHYV [peptide SLFYNELHYV (SEQ ID NO: 37)]	50 to 75
GLLEVQVEV [peptide GLLEVQVEV (SEQ ID NO: 40)]	50 to 75
SLQSLIISV [peptide SLQSLIISV (SEQ ID NO: 5)]	≥ 75
SLFERLVVL [peptide SLFERLVVL (SEQ ID NO: 109)]	≥ 75
RMDGAVTSV [peptide RMDGAVTSV (SEQ ID NO: 36)]	50 to 75
KLPSFLANV [peptide KLPSFLANV (SEQ ID NO: 118)]	50 to 75
LVFEGIMEV [peptide LVFEGIMEV (SEQ ID NO: 34)]	50 to 75
ALWVAVPKA [peptide ALWVAVPKA (SEQ ID NO: 46)]	50 to 75
VLLTTAVEV [peptide VLLTTAVEV (SEQ ID NO: 19)]	50 to 75
SLSGEIILHSV [peptide SLSGEIILHSV (SEQ ID NO: 45)]	20 to 50
GLTETGLYRI [peptide GLTETGLYRI (SEQ ID NO: 110)]	50 to 75

Binder	peptide exchange yield [%]
ALIVGIPSV [peptide ALIVGIPSV (SEQ ID NO: 44)]	≥ 75
YLWSEVFSM [peptide YLWSEVFSM (SEQ ID NO: 43)]	50 to 75
SLAADIPRL [peptide SLAADIPRL (SEQ ID NO: 120)]	50 to 75
AAASLIRLV [peptide AAASLIRLV (SEQ ID NO: 126)]	10 to 20
VMFNFPDQATV [peptide VMFNFPDQATV (SEQ ID NO: 2)]	50 to 75
GLSETILAV [peptide GLSETILAV (SEQ ID NO: 25)]	≥ 75
FLLDSAPLNV [peptide FLLDSAPLNV (SEQ ID NO: 117)]	≥ 75
AMYGTKLETI [peptide AMYGTKLETI (SEQ ID NO: 107)]	≥ 75
KAYQELLATV [peptide KAYQELLATV (SEQ ID NO: 41)]	50 to 75
ILASFMLTGV [peptide ILASFMLTGV (SEQ ID NO: 52)]	≥ 75
SLMLVTVEL [peptide SLMLVTVEL (SEQ ID NO: 17)]	50 to 75
GLLEALLKI [peptide GLLEALLKI (SEQ ID NO: 47)]	50 to 75
GLLEDERALQL [peptide GLLEDERALQL (SEQ ID NO: 42)]	50 to 75
SLLTAISEV [peptide SLLTAISEV (SEQ ID NO: 15)]	50 to 75
KMLDEAVFQV [peptide KMLDEAVFQV (SEQ ID NO: 26)]	≥ 75
KMPDDVWLV [peptide KMPDDVWLV (SEQ ID NO: 106)]	≥ 75
YMLEHVITL [peptide YMLEHVITL (SEQ ID NO: 121)]	50 to 75
ALGEISVSV [peptide ALGEISVSV (SEQ ID NO: 18)]	50 to 75
MLFEGLDLVSA [peptide MLFEGLDLVSA (SEQ ID NO: 12)]	50 to 75
SMMPDELLTSL [peptide SMMPDELLTSL (SEQ ID NO: 122)]	50 to 75
SLIGLDLSSV [peptide SLIGLDLSSV (SEQ ID NO: 48)]	50 to 75
VILDLPLVI [peptide VILDLPLVI (SEQ ID NO: 16)]	50 to 75

Binder	peptide exchange yield [%]
FMGDVFINV [peptide FMGDVFINV (SEQ ID NO: 35)]	≥ 75
GLDPTQFRV [peptide GLDPTQFRV (SEQ ID NO: 39)]	50 to 75
LLLPGVIKTV [peptide LLLPGVIKTV (SEQ ID NO: 112)]	50 to 75
ILIETKLVL [peptide ILIETKLVL (SEQ ID NO: 14)]	50 to 75
FLPEAPAEL [peptide FLPEAPAEL (SEQ ID NO: 111)]	50 to 75
LLPEKSWEI [peptide LLPEKSWEI (SEQ ID NO: 22)]	50 to 75
LLSEEHITL [peptide LLSEEHITL (SEQ ID NO: 53)]	≥ 75
KLDKNPNQV [peptide KLDKNPNQV (SEQ ID NO: 123)]	50 to 75
VLAEIDPKQLV [peptide VLAEIDPKQLV (SEQ ID NO: 3)]	50 to 75
RLLQDPVGV [peptide RLLQDPVGV (SEQ ID NO: 31)]	≥ 75
GLLDPGMLVNI [peptide GLLDPGMLVNI (SEQ ID NO: 4)]	50 to 75
RLALNTPKV [peptide RLALNTPKV (SEQ ID NO: 49)]	20 to 50
SMYDKVLML [peptide SMYDKVLML (SEQ ID NO: 105)]	≥ 75
ALLVRLQEV [peptide ALLVRLQEV (SEQ ID NO: 116)]	≥ 75
AMLEEVNYI [peptide AMLEEVNYI (SEQ ID NO: 1)]	50 to 75
ALLPSDCLQEA [peptide ALLPSDCLQEA (SEQ ID NO: 115)]	50 to 75
TMEEMIFEV [peptide TMEEMIFEV (SEQ ID NO: 21)]	50 to 75
MLDEILLQL [peptide MLDEILLQL (SEQ ID NO: 20)]	50 to 75
ALTSLELEL [peptide ALTSLELEL (SEQ ID NO: 32)]	50 to 75
GLISSLNEI [peptide GLISSLNEI (SEQ ID NO: 38)]	≥ 75
FLLSQIVAL [peptide FLLSQIVAL (SEQ ID NO: 50)]	50 to 75
ILDEAGVKYFL [peptide ILDEAGVKYFL (SEQ ID NO: 51)]	50 to 75
